Laboratory results: patent publication US20210292396A1

Experiments:
Assay in all cases: cell-based or functional assay
[1] = molecular target: Env of HIV isolate TZA125.17 (clade C) (HIV)
[2] = molecular target: HIV Env of isolate PVO.04 (HIV)
[3] = molecular target: HIV Env of isolate 16845-2.22 (HIV)
[4] = molecular target: Env of HIV isolate 271-11 (clade AG) (HIV)
[5] = molecular target: HIV Env of isolate X1254.c3 (HIV)
[6] = molecular target: Envelope protein of SVA.MLV (clade NA)
[7] = molecular target: Env of HIV isolate CNE21 (clade BC) (HIV)
[8] = molecular target: Env of HIV isolate UG024.2 (clade D) (HIV)
[9] = molecular target: Env of HIV isolate UG021.16 (clade D) (HIV)
[10] = molecular target: HIV Env of isolate RHPA.7 (HIV)
[11] = molecular target: Env of HIV isolate CNE5 (clade AE) (HIV)
[12] = molecular target: HIV Env of isolate 3718.v3.c11 (HIV)
[13] = molecular target: Env of HIV isolate 6540.v4.c1 (clade AC) (HIV)
[14] = molecular target: HIV Env of isolate X2278.C2.B6 (HIV)
[15] = molecular target: Env of HIV isolate KNH1209.18 (clade A) (HIV)
[16] = molecular target: HIV Env of isolate UG037.8 (HIV)
[17] = molecular target: HIV Env of isolate CNE19 (HIV)
[18] = molecular target: Env of HIV isolate T257-31 (clade AG) (HIV)
[19] = molecular target: Env of HIV isolate C4118.09 (clade AE) (HIV)
[20] = molecular target: HIV Env of isolate MW965.26 (HIV)
[21] = molecular target: HIV Env of isolate THRO.18 (HIV)
[22] = molecular target: HIV Env of isolate 6322.v4.c1 (HIV)
[23] = molecular target: HIV Env of isolate M02138 (HIV)
[24] = molecular target: HIV Env of isolate 25925-2.22 (HIV)
[25] = molecular target: Env of HIV isolate 3718.v3.c11 (clade A) (HIV)
[26] = molecular target: HIV Env of isolate TRO.11 (HIV)
[27] = molecular target: HIV Env of isolate 3468.v1.c12 (HIV)
[28] = molecular target: HIV Env of isolate T33-7 (HIV)
[29] = molecular target: Env of HIV isolate X1193.c1 (clade G) (HIV)
[30] = molecular target: HIV Env of isolate CNE20 (HIV)
[31] = molecular target: HIV Env of isolate BG505.W6M.C2 (HIV)
[32] = molecular target: HIV Env of isolate 928-28 (HIV)
[33] = molecular target: HIV Env of isolate 001428-2.42 (HIV)
[34] = molecular target: Env of HIV isolate 3301.v1.c24 (clade AC) (HIV)
[35] = molecular target: Env of HIV isolate TRJO.58 (clade B) (HIV)
[36] = molecular target: Env of HIV isolate CNE12 (clade B) (HIV)
[37] = molecular target: Env of HIV isolate CNE15 (clade BC) (HIV)
[38] = molecular target: HIV Env of isolate 5768.04 (HIV)
[39] = molecular target: Env of HIV isolate 16845-2.22 (clade C) (HIV)
[40] = molecular target: HIV Env of isolate ZA012.29 (HIV)
[41] = molecular target: HIV Env of isolate ZM109.4 (HIV)
[42] = molecular target: HIV Env of isolate REJO.67 (HIV)
[43] = molecular target: Env of HIV isolate ZM135.10a (clade C) (HIV)
[44] = molecular target: HIV Env of isolate TH966.8 (HIV)
[45] = molecular target: Env of HIV isolate CAAN.A2 (clade B) (HIV)
[46] = molecular target: HIV Env of isolate 286.36 (HIV)
[47] = molecular target: Env of HIV isolate 246-F3.C10.2 (clade AC) (HIV)
[48] = molecular target: Env of HIV isolate 00836-2.5 (clade C) (HIV)
[49] = molecular target: Env of HIV isolate SC422.8 (clade B) (HIV)
[50] = molecular target: Env of HIV isolate KER2008.12 (clade A) (HIV)
[51] = molecular target: Env of HIV isolate SO18.18 (clade C) (HIV)
[52] = molecular target: HIV Env of isolate CNE56 (HIV)
[53] = molecular target: Env of HIV isolate NKU3006.ec1 (clade D) (HIV)

Substance: PGT121 (antibody)
- IC50, pseudovirus neutralization [1]: 1.45 µg/mL
- IC80 [2]: 0.498 µg/mL
- IC80, pseudovirus neutralization [3]: 18.6 µg/mL
- IC50, pseudovirus neutralization [4]: > 50 µg/mL
- IC80, pseudovirus neutralization [5]: 0.106 µg/mL
- IC50, pseudovirus neutralization [6]: > 50 µg/mL
- IC50, pseudovirus neutralization [7]: 0.0143 µg/mL
- IC50, pseudovirus neutralization [8]: > 50 µg/mL
- IC50, pseudovirus neutralization [9]: 0.916 µg/mL
- IC80 [10]: 0.093 µg/mL
- IC50, pseudovirus neutralization [11]: > 50 µg/mL
- IC80 [12]: 4.76 µg/mL
- IC50, pseudovirus neutralization [13]: > 50 µg/mL
- IC80 [14]: 0.072 µg/mL
- IC50, pseudovirus neutralization [15]: 0.0117 µg/mL
- IC80 [16]: 0.307 µg/mL
- IC80, pseudovirus neutralization [17]: 0.041 µg/mL
- IC50, pseudovirus neutralization [18]: > 50 µg/mL
- IC50, pseudovirus neutralization [19]: > 50 µg/mL
- IC80, pseudovirus neutralization [20]: 0.093 µg/mL
- IC80 [21]: > 50 µg/mL
- IC80, pseudovirus neutralization [22]: > 50 µg/mL
- IC80 [23]: > 50 µg/mL
- IC80, pseudovirus neutralization [24]: 0.0867 µg/mL
- IC50, pseudovirus neutralization [25]: 0.559 µg/mL
- IC80 [26]: 0.0583 µg/mL
- IC80 [27]: 0.413 µg/mL
- IC80 [28]: > 50 µg/mL
- IC50, pseudovirus neutralization [29]: 0.0457 µg/mL
- IC80, pseudovirus neutralization [30]: 0.0127 µg/mL
- IC80 [31]: 0.165 µg/mL
- IC80 [32]: 29.9 µg/mL
- IC80, pseudovirus neutralization [33]: 0.108 µg/mL
- IC50, pseudovirus neutralization [34]: 0.0217 µg/mL
- IC50, pseudovirus neutralization [35]: 1.63 µg/mL
- IC50, pseudovirus neutralization [36]: 0.0153 µg/mL
- IC50, pseudovirus neutralization [37]: 6.64 µg/mL
- IC80 [38]: 0.917 µg/mL
- IC50, pseudovirus neutralization [39]: 2.72 µg/mL
- IC80, pseudovirus neutralization [40]: 0.0347 µg/mL
- IC80, pseudovirus neutralization [41]: > 50 µg/mL
- IC80 [42]: > 50 µg/mL
- IC50, pseudovirus neutralization [43]: 0.748 µg/mL
- IC80 [44]: > 50 µg/mL
- IC50, pseudovirus neutralization [45]: 0.0193 µg/mL
- IC80, pseudovirus neutralization [46]: 0.027 µg/mL
- IC50, pseudovirus neutralization [47]: > 50 µg/mL
- IC50, pseudovirus neutralization [48]: > 50 µg/mL
- IC50, pseudovirus neutralization [49]: 0.115 µg/mL
- IC50, pseudovirus neutralization [50]: 0.553 µg/mL
- IC50, pseudovirus neutralization [51]: 0.00533 µg/mL
- IC80 [52]: > 50 µg/mL
- IC50, pseudovirus neutralization [53]: > 50 µg/mL
